According to paper PMC11418127, “Structures of LIG1 uncover the mechanism of sugar discrimination against 5′-RNA-DNA junctions during ribonucleotide excision repair”:

Assays:
[1] = target: LIG1 WT (C-terminal, Δ261) (UniProt P18858 262-919); assay: X-ray crystallography; AMP covalently bound to K568 (step 1); 1 mM ATP, 1 mM EDTA; Crystallization: 20 mM Tris-HCl pH 7.0, 200 mM NaCl, 1 mM DTT, 1 mM EDTA, 1 mM ATP, LIG1 27 mg/ml, DNA:protein 1.4:1, hanging drop at 20 °C; conditions: protein: recombinant; tags: 6xHis; nicked duplex: 18-nt template, 11-nt upstream, 7-nt downstream; blunt outer ends
Sequence of LIG1 WT (C-terminal, Δ261) (P18858 262-919, stated change not applied): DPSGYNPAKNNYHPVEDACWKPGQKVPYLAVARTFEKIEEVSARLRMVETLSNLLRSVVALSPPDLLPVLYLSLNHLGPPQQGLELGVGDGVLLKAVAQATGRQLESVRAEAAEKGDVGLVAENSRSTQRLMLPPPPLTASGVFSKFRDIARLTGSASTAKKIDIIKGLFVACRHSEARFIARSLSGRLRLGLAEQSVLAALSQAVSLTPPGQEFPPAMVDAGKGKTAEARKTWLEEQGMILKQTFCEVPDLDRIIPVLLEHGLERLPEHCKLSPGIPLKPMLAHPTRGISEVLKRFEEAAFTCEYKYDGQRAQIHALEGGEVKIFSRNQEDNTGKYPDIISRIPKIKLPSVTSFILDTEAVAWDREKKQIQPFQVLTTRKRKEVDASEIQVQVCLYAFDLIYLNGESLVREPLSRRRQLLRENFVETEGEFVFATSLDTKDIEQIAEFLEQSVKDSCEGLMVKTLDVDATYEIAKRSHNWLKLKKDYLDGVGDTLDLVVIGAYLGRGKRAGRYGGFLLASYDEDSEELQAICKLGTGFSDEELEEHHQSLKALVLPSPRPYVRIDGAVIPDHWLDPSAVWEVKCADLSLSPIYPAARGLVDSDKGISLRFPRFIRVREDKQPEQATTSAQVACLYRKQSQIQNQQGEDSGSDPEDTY

[2] = target: LIG1 EE/AA (C-terminal, Δ261) (UniProt P18858 262-919, E346A;E592A); assay: as above; conditions: protein: recombinant; tags: 6xHis; nicked duplex: 18-nt template, 11-nt upstream, 7-nt downstream; blunt outer ends
Sequence of LIG1 EE/AA (C-terminal, Δ261) (P18858 262-919 E346A/E592A): as the sequence (P18858 262-919, stated change not applied) above, with E85A, E331A counted along it

B1: nick DNA 5'-rG:C (mixed)
DNA 1: GTCCGACCACGCATCAGC
DNA 2: GCTGATGCGTG
DNA 3: GTCGGAC
modifications: ribonucleotide rG at position 1 of downstream strand (strand 3); 5'-phosphate on strand 3
B1: binds [1]; binds [2].
